According to patent US20060233822A1 (YANG SHENG TANG, published 2006):

Columns and labels:
7-peptide HPTLLRI = experiment: phage display panning on coated MAb; 5 clones
7-peptide ITNDFKQ = experiment: phage display panning on coated MAb; 1 clone
7-peptide SLPTLTL = experiment: phage display panning on coated MAb; 1 clone
7-peptide PVQMPWL = experiment: phage display panning on coated MAb; 1 clone
C149-mut-8C11 = experiment: dot blot of E. coli lysate supernatant
7-peptide SLVTGIL = experiment: phage display panning on coated MAb; 1 clone
7-peptide VSWNSLV = experiment: phage display panning on coated MAb; 1 clone
7-peptide SAPSSKN = experiment: phage display panning on coated MAb; 1 clone
7-peptide INQKPTL = experiment: phage display panning on coated MAb; 1 clone
7-peptide SSMFFYR = experiment: phage display panning on coated MAb; 1 clone
7-peptide SSYEWFI = experiment: phage display panning on coated MAb; 1 clone
7-peptide NHWASPR = experiment: phage display panning on coated MAb; 1 clone
7-peptide YQDSAKT = experiment: phage display panning on coated MAb; 2 clones
polypeptide 209 = polypeptide 209 (hepatitis E virus); experiment: ELISA with 8C11
7-peptide STLFMNF = experiment: phage display panning on coated MAb; 1 clone
7-peptide SPKMPIL = experiment: phage display panning on coated MAb; 1 clone
7-peptide SAHVLST = experiment: phage display panning on coated MAb; 1 clone
7-peptide SPPNVRT = experiment: phage display panning on coated MAb; 1 clone
C149-mut-8H3 = target: T1, C149-mut-8H3; experiment: dot blot of E. coli lysate supernatant
T1 chain: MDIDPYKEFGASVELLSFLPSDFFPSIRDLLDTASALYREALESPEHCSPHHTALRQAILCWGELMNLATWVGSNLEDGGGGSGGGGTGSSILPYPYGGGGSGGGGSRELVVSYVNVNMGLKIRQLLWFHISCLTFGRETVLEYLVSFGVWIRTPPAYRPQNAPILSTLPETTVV

7-peptide ALWGPTS = experiment: phage display panning on coated MAb; 2 clones

B1: monoclonal antibody 8C11 (antibody, V domains shown)
VH: QVTLKESGPGILQPSQTLSLTCSFSGFSLSTSGMGVGWIRQPSGKGLEWLAHIWWDDVKRYSPALKSRLTISKDTSSSQLFLKIASVDTADTATYYCARIKSVITTGDYALDYWGQGTSVAVSS
VL: DIQMTQSPASLSVSVGETVTITCRASEIIYSNLAWYQQKQGKSPQLLVYSATNLAEGVPSRFSGSGSGTQYSLKINSLQSEDFGSYYCQHFWGNPWTFGGGTKLEIKR
notes: also called MAb 8C11; HRP-8C11
binding result (7-peptide HPTLLRI): binds | binding result (7-peptide ITNDFKQ): binds | binding result (7-peptide SLPTLTL): binds | binding result (7-peptide PVQMPWL): binds | binding result (C149-mut-8C11): binds

B2: monoclonal antibody 13D8 (antibody, V domains shown)
VH: DVQLQESGPGLVKPSQSLSLSCSVTGYSITSGYYWNWIRQFPGNKLEWMGYIGYDGSNKYNPSLKNRISITRDTSKNQFFLKLTSVTTGDTATYYCVRDVKYYFDYWGQGTTVTVSS
VL: DIQMTQSPASLSVSVGETVTITCRASENIYSNLAWYQQKQGKSPQLLVYAATNLADGVPSRFSGSGSGTQYSLKISSLQSEDFGSYYCQHFWGSPWTFGGGTKLEIKR
notes: also called MAb 13D8; HRP-13D8
binding result (7-peptide SLVTGIL): binds | binding result (7-peptide VSWNSLV): binds | binding result (7-peptide SAPSSKN): binds | binding result (7-peptide INQKPTL): binds | binding result (7-peptide SSMFFYR): binds | binding result (7-peptide SSYEWFI): binds | binding result (7-peptide NHWASPR): binds | binding result (7-peptide YQDSAKT): binds

B3: monoclonal antibody 8H3 (antibody, V domains shown)
VH: QVQLKESGPGLVAPSQSLSITCTVSGFSLIGYGVNWVRQPPEKGLEWLGMIWGDGSTDYNSALKSRLSITKDNSKSQVFLKMNSLQTDDTARYYCAMGVRPDPFDYWGQGTLVTVSA
VL: NIMMTQSPSSLAVSAGEKVTMSCKSSQSVLYSSNQKNYLAWYQQKPGQSPKLLIYWASARESGVPDRFTGSGSGTDFTLTINSVQTEDLAVYYCHQYLSSYTFGGGTKLEIKR
notes: also called MAb 8H3; HRP-8H3
8C11 increases 8H3's reactivity (polypeptide 209): 3 fold | binding result (7-peptide STLFMNF): binds | binding result (7-peptide SPKMPIL): binds | binding result (7-peptide SAHVLST): binds | binding result (7-peptide SPPNVRT): binds | binding result (C149-mut-8H3): binds | binding result (7-peptide ALWGPTS): binds
